Measured values as given in patent US20140242080A1 (Hoffmann-La Roche, published 2014).

What was measured:
[1] = biological target: T1, human CEA expressed on tumor cells (LS-174T, A549-huCEA, MKN-45, MC38-huCEA, HPAFII, BxPC-3, ASPC-1) (human, UniProt P06731 35-685); experiment: cell-based or functional assay
T1 sequence (looked up): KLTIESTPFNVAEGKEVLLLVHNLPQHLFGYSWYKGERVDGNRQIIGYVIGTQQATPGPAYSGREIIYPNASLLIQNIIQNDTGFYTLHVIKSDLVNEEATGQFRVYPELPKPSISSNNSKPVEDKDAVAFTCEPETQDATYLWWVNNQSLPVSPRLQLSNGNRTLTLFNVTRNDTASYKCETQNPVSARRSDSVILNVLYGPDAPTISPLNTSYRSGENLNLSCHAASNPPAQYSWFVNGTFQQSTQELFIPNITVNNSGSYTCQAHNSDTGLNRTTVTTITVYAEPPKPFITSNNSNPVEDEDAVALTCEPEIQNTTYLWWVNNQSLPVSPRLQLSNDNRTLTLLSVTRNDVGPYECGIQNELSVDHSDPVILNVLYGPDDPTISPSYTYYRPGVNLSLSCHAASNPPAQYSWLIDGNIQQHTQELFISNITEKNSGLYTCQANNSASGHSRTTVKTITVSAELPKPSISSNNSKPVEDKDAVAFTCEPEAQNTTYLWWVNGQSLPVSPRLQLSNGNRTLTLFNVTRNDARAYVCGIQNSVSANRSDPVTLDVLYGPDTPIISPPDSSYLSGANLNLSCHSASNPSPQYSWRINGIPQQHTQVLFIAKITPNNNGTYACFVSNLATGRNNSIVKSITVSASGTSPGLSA

[2] = biological target: T1, human CEA expressed on tumor cells …; experiment: flow cytometry on A549-huCEA cells
Protocol: Briefly, cells were harvested, counted, checked for viability and resuspended at 2×10⁶ cells/ml in FACS buffer (100 μl PBS 0.1% BSA).

[3] = biological target: T1, human CEA expressed on tumor cells …; experiment: cell-based or functional assay; remark: listed apart in the source
human NABA-avi-his [4] = biological target: T2, human NABA-avi-his (human); experiment: SPR Biacore T100, 25 C; t1/2 = ln 2/koff
T2 construct: Chimeric antigen with a C-terminal avi 6his tag; also called recombinant tumor target antigen
T2 chain: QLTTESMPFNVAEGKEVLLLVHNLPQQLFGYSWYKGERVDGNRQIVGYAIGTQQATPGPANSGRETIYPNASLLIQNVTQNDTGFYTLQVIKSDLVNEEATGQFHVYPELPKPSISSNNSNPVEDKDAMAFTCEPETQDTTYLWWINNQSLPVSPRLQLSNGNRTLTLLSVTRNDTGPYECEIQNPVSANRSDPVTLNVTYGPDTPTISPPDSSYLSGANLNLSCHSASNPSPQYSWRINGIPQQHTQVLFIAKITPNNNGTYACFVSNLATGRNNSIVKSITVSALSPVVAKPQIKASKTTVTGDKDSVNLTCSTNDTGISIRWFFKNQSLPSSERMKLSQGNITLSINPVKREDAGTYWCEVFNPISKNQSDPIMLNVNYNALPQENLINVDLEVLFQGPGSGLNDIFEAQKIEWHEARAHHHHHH
Protocol: (§1) Surface plasmon resonance (SPR) experiments were performed on a Biacore T100 at 25° C. with HBS-EP as running buffer (0.01 M HEPES pH 7.4, 0.15 M NaCl, 3 mM EDTA, 0.005% Surfactant P20, Biacore, Freiburg/Germany).
(§2) Kinetic constants were derived using the Biacore T200 Evaluation Software (vAA, Biacore AB, Uppsala/Sweden), to fit rate equations for 1:1 Langmuir binding by numerical integration. The half-life (t_{1/2}) of the interaction was calculated using following formula: t_{1/2}=ln 2/koff.

[5] = biological target: T3, human CD3ε stalk-Fc (knob)-Avi/CD3δ-stalk-Fc(hole) (human); experiment: SPR Biacore T100, 25 C; t1/2 = ln 2/koff
T3 construct: also called Human CD3ε/CD3δ; recombinant CD3ε/CD3δ
T3 sequence (chain, as listed by the source mutant limits assumed, chain 1 of 2): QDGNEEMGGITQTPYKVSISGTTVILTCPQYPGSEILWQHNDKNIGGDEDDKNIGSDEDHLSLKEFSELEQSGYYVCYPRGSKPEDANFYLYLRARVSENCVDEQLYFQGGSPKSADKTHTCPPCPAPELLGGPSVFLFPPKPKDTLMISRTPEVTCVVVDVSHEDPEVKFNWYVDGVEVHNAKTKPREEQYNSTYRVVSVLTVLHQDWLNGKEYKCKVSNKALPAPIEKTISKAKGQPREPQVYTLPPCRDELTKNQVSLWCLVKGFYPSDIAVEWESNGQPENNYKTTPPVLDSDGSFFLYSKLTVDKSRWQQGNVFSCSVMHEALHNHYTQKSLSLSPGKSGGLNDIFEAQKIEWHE
T3 sequence (chain, as listed by the source mutant limits assumed, chain 2 of 2): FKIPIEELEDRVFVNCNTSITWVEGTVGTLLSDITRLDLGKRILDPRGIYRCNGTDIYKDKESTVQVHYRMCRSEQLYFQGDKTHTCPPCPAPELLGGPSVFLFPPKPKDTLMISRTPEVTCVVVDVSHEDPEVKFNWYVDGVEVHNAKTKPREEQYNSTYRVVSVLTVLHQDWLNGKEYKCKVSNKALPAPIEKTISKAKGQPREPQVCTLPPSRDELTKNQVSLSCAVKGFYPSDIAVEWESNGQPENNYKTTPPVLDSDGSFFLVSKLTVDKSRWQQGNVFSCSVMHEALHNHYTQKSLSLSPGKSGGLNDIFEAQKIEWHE
Protocol: as §1, §2

human NABA-avi-his [6] = biological target: T2, human NABA-avi-his; experiment: SPR Biacore T100, 25 C; TCB captured via anti-human Fab, antigen as analyte
[7] = biological target: T3, human CD3ε stalk-Fc …; experiment: as above

B1: CEA TCB (2+1 Crossfab-IgG P329G LALA inverted) (bispecific antibody)
chain 1: DIQMTQSPSSLSASVGDRVTITCKASAAVGTYVAWYQQKPGKAPKLLIYSASYRKRGVPSRFSGSGSGTDFTLTISSLQPEDFATYYCHQYYTYPLFTFGQGTKLEIKRTVAAPSVFIFPPSDEQLKSGTASVVCLLNNFYPREAKVQWKVDNALQSGNSQESVTEQDSKDSTYSLSSTLTLSKADYEKHKVYACEVTHQGLSSPVTKSFNRGEC
chain 2: QAVVTQEPSLTVSPGGTVTLTCGSSTGAVTTSNYANWVQEKPGQAFRGLIGGTNKRAPGTPARFSGSLLGGKAALTLSGAQPEDEAEYYCALWYSNLWVFGGGTKLTVLSSASTKGPSVFPLAPSSKSTSGGTAALGCLVKDYFPEPVTVSWNSGALTSGVHTFPAVLQSSGLYSLSSVVTVPSSSLGTQTYICNVNHKPSNTKVDKKVEPKSC
chain 3: not shown
chain 4: QVQLVQSGAEVKKPGASVKVSCKASGYTFTEFGMNWVRQAPGQGLEWMGWINTKTGEATYVEEFKGRVTFTTDTSTSTAYMELRSLRSDDTAVYYCARWDFAYYVEAMDYWGQGTTVTVSSASTKGPSVFPLAPSSKSTSGGTAALGCLVKDYFPEPVTVSWNSGALTSGVHTFPAVLQSSGLYSLSSVVTVPSSSLGTQTYICNVNHKPSNTKVDKKVEPKSCDKTHTCPPCPAPEAAGGPSVFLFPPKPKDTLMISRTPEVTCVVVDVSHEDPEVKFNWYVDGVEVHNAKTKPREEQYNSTYRVVSVLTVLHQDWLNGKEYKCKVSNKALGAPIEKTISKAKGQPREPQVCTLPPSRDELTKNQVSLSCAVKGFYPSDIAVEWESNGQPENNYKTTPPVLDSDGSFFLVSKLTVDKSRWQQGNVFSCSVMHEALHNHYTQKSLSLSPGK
notes: CH1A1A 98/99 2F1 as anti-CEA and humanized CH2527 as anti-CD3 antibody; also called CEA TCB antibody
[1]
  EC50 of T cell-mediated killing (LDH release), A549-hCEA cells, cynomolgus PBMCs E:T 10:1, 40 h: 0.102 nM
  EC50 of T cell-mediated killing (LDH release), A549-hCEA cells, human PBMCs E:T 10:1, 40 h: 0.306 nM
[2]
  EC50: 6.6 nM
[3]
  EC50 [pM] 48 h of T-cell mediated killing (LDH release), ASPC1 cells, human PBMCs E:T 10:1: 846 pM
  EC50 [pM] 48 h of T-cell mediated killing (LDH release), BxPC-3 cells, human PBMCs E:T 10:1: 3780 pM
  EC50 [pM] 48 h of T-cell mediated killing (LDH release), HPAFII cells, human PBMCs E:T 10:1: 667 pM
Human NABA-avi-his [4]
  t1/2: 5.3 min
[5]
  t1/2: 5.7 min
Human NABA-avi-his [6]
  Kd: 62.4 nM
  koff: 0.00218 s⁻¹
  kon: 34900 M⁻¹ s⁻¹
[7]
  Kd: 75.3 nM
  koff: 0.00203 s⁻¹
  kon: 26900 M⁻¹ s⁻¹
